B1: syntaxin1B (natural protein, mouse (endogenous in brain), UniProt P61264 1-288, looked up)
chain: MKDRTQELRSAKDSDDEEEVVHVDRDHFMDEFFEQVEEIRGCIEKLSEDVEQVKKQHSAILAAPNPDEKTKQELEDLTADIKKTANKVRSKLKAIEQSIEQEEGLNRSSADLRIRKTQHSTLSRKFVEVMTEYNATQSKYRDRCKDRIQRQLEITGRTTTNEELEDMLESGKLAIFTDDIKMDSQMTKQALNEIETRHNEIIKLETSIRELHDMFVDMAMLVESQGEMIDRIEYNVEHSVDYVERAVSDTKKAVKYQSKARRKKIMIIICCVVLGVVLASSIGGTLGL
notes: syntaxin1B, SNARE complex protein, endogenous in adult mouse brain; also called synatxin1B; source: endogenous, mouse brain lysate and synaptosomes; immunoprecipitated from synaptosomes and held on beads
B2: small glutamine-rich tetratricopeptide repeat-containing protein, ubiquitous isoform (αSGT) (natural protein, mouse (endogenous in brain), UniProt Q8BJU0 1-315, looked up)
chain: MDNRKRLAYAIIQFLHGQLRHGGLSCDAQESLEVAIQCLETAFGVTLEDSDLALPQTLPEIFEAATSSKQEMPQDPRAPDRTPPSEEDSAEAERLKTEGNEQMKLENFEAAVHLYGKAIELNPANAVYFCNRAAAYSKLGNYVGAVQDCERAIGIDPGYSKAYGRMGLALSSLNKHAEAVAYYKKALELDPDNDTYKSNLKIAELKLREAPSPTGGVGSLDIAGLLNNPHFITMASSLMNSPQLQQLMSGMISGGHNPLGTPGSSPQQSDLASLIQAGQQFAQQMQQQNPEFVEQIRSQVVRSRTPSASHEEQQE
notes: αSGT, endogenous in adult mouse brain; also called alphaSGT; source: endogenous, mouse brain lysate; synaptic vesicles and synaptic plasma membranes

Target: T1, Close homologue of L1 (CHL1) (mouse (endogenous in brain), UniProt P70232 26-1209)
T1 construct: CHL1, cell adhesion molecule of the immunoglobulin superfamily, endogenous in adult mouse brain; also called CALL; source: endogenous, mouse brain lysate; synaptosomes; synaptic vesicles and synaptic plasma membranes
T1 sequence (looked up): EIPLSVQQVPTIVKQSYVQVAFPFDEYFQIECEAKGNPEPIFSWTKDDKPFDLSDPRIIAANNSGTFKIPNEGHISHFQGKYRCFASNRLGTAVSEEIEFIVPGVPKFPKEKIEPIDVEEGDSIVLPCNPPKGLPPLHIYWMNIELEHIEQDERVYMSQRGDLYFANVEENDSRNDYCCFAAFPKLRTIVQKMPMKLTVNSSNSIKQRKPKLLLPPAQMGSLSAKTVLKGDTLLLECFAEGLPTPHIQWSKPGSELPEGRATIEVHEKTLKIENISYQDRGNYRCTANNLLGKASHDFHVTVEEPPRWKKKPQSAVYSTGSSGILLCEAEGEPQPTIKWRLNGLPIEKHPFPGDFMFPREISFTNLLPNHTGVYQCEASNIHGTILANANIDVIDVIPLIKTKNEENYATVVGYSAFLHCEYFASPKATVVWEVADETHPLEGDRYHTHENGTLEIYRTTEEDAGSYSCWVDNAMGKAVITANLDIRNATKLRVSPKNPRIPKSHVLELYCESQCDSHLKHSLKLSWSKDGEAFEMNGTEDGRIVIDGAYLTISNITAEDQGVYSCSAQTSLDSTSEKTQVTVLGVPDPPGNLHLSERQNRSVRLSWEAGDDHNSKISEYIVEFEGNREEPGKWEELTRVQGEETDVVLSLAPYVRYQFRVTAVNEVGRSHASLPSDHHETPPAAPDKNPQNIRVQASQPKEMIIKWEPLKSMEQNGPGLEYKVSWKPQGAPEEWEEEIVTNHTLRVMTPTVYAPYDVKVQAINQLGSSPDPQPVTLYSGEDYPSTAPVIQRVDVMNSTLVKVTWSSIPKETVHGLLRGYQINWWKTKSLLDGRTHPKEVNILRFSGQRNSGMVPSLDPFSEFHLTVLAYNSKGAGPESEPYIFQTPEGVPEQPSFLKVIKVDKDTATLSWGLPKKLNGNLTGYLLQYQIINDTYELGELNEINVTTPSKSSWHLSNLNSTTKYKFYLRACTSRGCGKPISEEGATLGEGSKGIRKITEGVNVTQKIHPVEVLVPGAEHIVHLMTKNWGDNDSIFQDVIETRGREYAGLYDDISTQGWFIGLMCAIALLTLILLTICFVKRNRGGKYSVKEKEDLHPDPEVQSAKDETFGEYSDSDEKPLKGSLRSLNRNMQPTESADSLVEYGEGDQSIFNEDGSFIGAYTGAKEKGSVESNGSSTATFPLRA
Assay: co-IP; CHL1 immunoprecipitated from adult mouse brain lysates (50 mM Tris-HCl pH 7.5, 150 mM NaCl, 1% Nonidet P-40, 1 mM EDTA); protein A/G-agarose; Western blot; mock IP with non-specific Ig as control
Conditions: partners not purified

Row | Binder | percent of the total pool co-immunoprecipitated [%]
1 | B1 | 15 ± 3.1
2 | B2 | 46 ± 8.5

Reference: article PMC2920317, “CHL1 Is a Selective Organizer of the Presynaptic Machinery Chaperoning the SNARE Complex” (PLoS ONE, 2010)
